{"source": "patent US6528633", "proteins": {"B1": {"name": "recombinant clam E2-C, bacterially expressed (protein)", "chain": "MSGQNIDPAANQVRQKERPRDMTTSKERHSVSKRLQQELRTLLMSGDPGITAFPDGDNLFKWVATLDGPKDTVYESLKYKLTLEFPSDYPYKPPVVKFTTPCWHPNVDQSGNICLDILKENWTASYDVRTILLSLQSLLGEPNNASPLNAQAADMWSNQTEYKKVLHEKYKTAQSKDK"}}, "key": {"[1]": {"target": "clam E3-C/cyclosome complex, activated, partially purified"}, "[2]": {"target": "non-specific ubiquitin-protein ligase (E3) from clam oocyte Fraction 1A"}}, "data": [{"protein": "B1", "values": [{"measurement": "half-maximal activation of cyclin ubiquitination", "setting": "[1]", "result": "half-maximal activation was obtained with 0.05 µM recombinant E2"}, {"measurement": "formation of ubiquitin-protein conjugates", "setting": "[2]", "result": "the recombinant clam E2 had no significant influence on the formation of ubiquitin-protein conjugates by the non-specific E3"}]}]}
